Assay results reported in patent publication US8093030B2, “Thermostable viral polymerases and methods of use” (Lucigen Corporation, priority 2005, dated 2012).
Substitutions are numbered along the chain they refer to. Names and notes keep the numbering of the source.

What was measured:
[1] = test system: M13 primer on M13mp18 ssDNA; assay: Primer extension detected by Pico Green with chain terminating analogs; type: biochemical; conditions: control without chain terminating analogs, 2 mM each dNTP
Protocol: In a second experiment, incorporation was tested by detection of DNA synthesis using a double-strand specific fluorescent dye, Pico Green (Invitrogen). […] In separate reactions, a mix of ddGTP, ddATP ddTTP, ddCTP (2 mM each) and a mix of the four acyNTPs (2 mM each) were added to extension reactions followed by DNA polymerase. As a control, identical reactions without added chain terminating analogs were also performed. Polymerase 3173 mutant D49A was tested and, for comparison, T7 DNA polymerase, which incorporates ddNTPs with very low discrimination, and Klenow fragment of E. coli polymerase I and VENTR DNA polymerase (New England Biolabs), both of which have a higher discrimination, were also tested. Extension of the primer was detected by fluorescence of Pico Green dye.

[2] = test system: plasmid DNA nicked with N.Bst NB1; assay: Isothermal RCA in the absence of added primers (nick-initiated synthesis)
Protocol: Suitably, nick-initiated polymerase activity can be detected, e.g., on an agarose gel, as an increase in the amount of DNA product due to synthesis in the presence of a nicking enzyme as compared to minimal or no product synthesized when nicking enzyme is absent from the reaction.
Reactions containing 10 ng of plasmid DNA, 20 mM Tris-HCl, 10 mM (NH4)2SO4, 10 mM KCl, 2 mM MgSO4, 0.1% Triton X-100, pH 8.8 at 25° C., and 200 μM each of dGTP, dATP, dTTP and dCTP were incubated for 2 hours at 56° C. with or without 10 units of nick-generating enzyme N.Bst NB1 (NEB) and either no DNA polymerase, 200 units of 3173 wt or 400 units of 3173 (D49A) mutant enzyme. Parallel reactions were performed in the absence of nicking enzyme, polymerase or both. Amplification products were analyzed by agarose gel electrophoresis.

[3] = test system: primed single stranded M13 DNA; assay: Binding constant (Km) for primed template; type: biochemical; conditions: nucleotides in excess, 70° C.
Protocol: The binding constant (reported as Km, the concentration at which the reaction rate is 50% maximal) for nucleotides by polymerase 3173 was determined using activated calf thymus DNA as a template. Reactions were maintained under pseudo-first order conditions using a molar excess of all components, with the exceptions of the enzyme and the nucleotides. Reactions (50 μl) were incubated at 70° C. and samples (5 μl each) were removed at varying time points and spotted on DE81 paper. Activity was determined as described in Example 6. The binding constant for primed template was similarly determined except that nucleotides were supplied in excess and the concentration of primed template (primed single stranded M13 DNA) was varied.

lacIq gene = assay: Fidelity assay, lacIq amplification with blue/white colony count; conditions: 25 PCR cycles, target size 349 for lacIq
Protocol: Fidelity was determined by a modification of the standard assay in which the lacIq gene is amplified by the DNA polymerase of interest and inserted into a plasmid containing genes encoding a functional lacZ alpha peptide and a selectable marker. Primers of SEQ ID NOS:28 and 29 were used to amplify a sequence containing both the lacIq and the KanR gene. […] Normally a white phenotype is seen for clone containing this construct when plated on X-Gal. Mutation of the lacIq results in a blue phenotype for the colonies when plated on X-Gal.
For high fidelity PCR amplification, five units of the wild-type (proofreading) DNA polymerase 3173 (SEQ ID NO: 6) was tested using the following mix (50 mM Tris HCl (pH 9.0 at 25° C.), 50 mM KCl, 10 mM (NH4)2SO4, 1.5 mM MgSO4, 1.5 mM MgCl2, 0.1% triton-X100, 250 mM ectoine and 0.2 mM each of dGTP, dATP, dTTP and dCTP. Opposing primers of SEQ ID 28 and 29 (1 μM each) amplified the expected 2 k kb product from template SEQ ID 30 (10 ng). After thermal cycling (94° C. for 1 minute, 25 cycles of (94° C. for 15 seconds, 60° C. for 15 seconds, 72° C. for 2.5 minutes) and 72° C. 7 minutes), reaction products were quantified to determine “fold amplification,” (see below) using agarose gel electrophoresis. Both primers contain Eco109I sites. The PCR product was digested with Eco109I and inserted into the Eco109I site of pUC19. 10 G cells transformed by the construct were plated on LB plates containing ampicillin (100 μg/ml), kanamycin (30 μg/ml) and X-Gal (50 μg/ml). Blue and white colony counts were used for the fidelity determinations.
Poly rA: Oligo dT = assay: Reverse transcriptase activity by incorporation of radiolabeled dTTP; type: biochemical
Protocol: Reverse transcriptase activity was detected by incorporation of radiolabeled deoxyribonucleotide triphosphates into polydeoxyribonucleotides using a ribonucleic acid template. […] Incorporation of dTTP was detected as radioactive counts adhering to DE81 filter paper. Similar reverse transcription reactions were measured by incorporation of labeled dTTP on a poly rA template using 1 unit of Tth (Promega) and 1 unit MMLV reverse transcriptase (Novagen) according to the respective manufacturers' recommended conditions.

[4] = test system: radiolabeled polynucleotide; assay: Exonuclease assay (radioactive nucleotide release); type: biochemical
Protocol: For example, polynucleotides can be synthesized such that a detectable proportion of the nucleotides are radioactively labeled. These polynucleotides are incubated in an appropriate buffer in the presence of the polypeptide to be tested. After incubation, the polynucleotide is precipitated and exonuclease activity is detectable as radioactive counts due to free nucleotides in the supernatant.
The presence of a 3′-5′ exonuclease domain in the 3173 DNA polymerase was detected by reduction in molecular weight of a 5′ fluorescently labeled oligonucleotide. Upon incubation of the primer/template complex described in Example 5, under the same conditions, a portion of the primer product was reduced in apparent molecular weight. This reduction in size was detected by capillary electrophoresis using an ABI 310 Genetic Analyzer operated in GeneScan mode. The presence of an exonuclease domain was confirmed by sequence alignment and by incubation of the polymerase with a radiolabeled polynucleotide, followed by digestion and precipitation with trichloroacetic acid. Radioactivity due to free nucleotides in the supernatant was measured.
An exonuclease assay was performed to confirm that exonuclease activity was eliminated in the mutants. […]
Exonuclease activity for polymerase 3173 was determined as described in Example 7.

[5] = test system: plasmid and random primers; assay: Strand displacement activity in rolling circle amplification (RCA) with random primers; type: biochemical
Protocol: As used herein, “strand displacement activity” refers to the ability of a polymerase to displace downstream DNA encountered during synthesis. Protocols such as, e.g., strand displacement amplification (SDA) may exploit this activity. Strand displacement activity may be determined using primer-initiated synthesis. A polymerase of the invention is incubated in the presence of a plasmid and random primers. A polymerase of the invention may extend the primer the complete circumference of the plasmid at which point the 5′ end of the primer is encountered. If the polymerase is capable of strand displacement activity, the nascent strand of DNA is displaced and the polymerase continues DNA synthesis. The presence of strand displacement activity results in a product having a molecular weight greater than the original template. The higher molecular weight product can be easily detected by agarose gel electrophoresis.
Strand displacement activity was determined using primer-initiated synthesis in a rolling circle amplification (RCA) protocol. Briefly, polymerase 3173 was incubated in the presence of a plasmid and random primers. Polymerase 3173 extended the primer the complete circumference of the plasmid at which point the 5′ end of the primer was encountered.

[6] = test system: single-stranded M13mp18 and double stranded pUC19 plasmid DNA; assay: High temperature isothermal RCA amplification with random decamer primers; type: biochemical; conditions: both templates
Protocol: Five units of polymerase 3173 was used to amplify one nanogram each of single-stranded M13mp18 and double stranded pUC19 plasmid DNA. […] Either 0.5 μM or 5 μM of random decamer primers were added to each template. Reactions were incubated at 95° C. prior to addition of enzyme, then 16 hours at 55° C. with enzyme. One fiftieth of each reaction was resolved on a 1% agarose gel.
Results are shown in FIG. 5, Panel A. Lanes are as follows: five units of 3173 wild type DNA polymerase used to amplify M13mp18 single-stranded DNA template (lanes 2 and 3) and pUC19 double-stranded DNA (lanes 4 and 5) or no template (lane 6). Random ten nucleotide oligomer primers are added in the concentrations of 5 μM (lanes 2, 4 and 6) or 0.5 μM (lanes 3 and 5).
To determine if the amplification was specific for the template DNA, one μl of the amplification product of the positive pUC19 reaction was tested in a PCR reaction using primers specific for a 1 kb sequence in the bla gene of the original plasmid template. As a negative control, a reaction lacking deoxynucleotides was analyzed using PCR. As a positive control, the 1 kb sequence was amplified directly from 1 ng of pUC19.

activated ct DNA = assay: Inhibition of radioactive nucleotide incorporation by chain terminating analogs; type: biochemical; conditions: control, 40 μM each dNTP, 70° C. 30 min
Protocol: Based on alignment with family A DNA polymerases, amino acid 418 of the polymerase 3173 mutant D49A was mutated from phenylalanine to tyrosine. The mutant protein was expressed and the cells lysed and heat-treated at 70° C. for 10 minutes to inactivate host proteins. The polymerase 3173 mutant D49A/F418Y was tested for inhibition of radioactive nucleotide incorporation using chain terminating nucleotide analogs in the same mix as unlabeled deoxynucleotides. […] In separate reactions both the D49A/F418Y mutant and purified polymerase 3173 mutant D49A were tested for inhibition by 4 mM each of ddNTPs and 4 mM each acycloNTPs. A control with no chain terminators was included. 50 μl reactions were incubated at 70° C. for 30 min. 15 μl of each reaction was spotted on DE81 paper, washed and counted, and units of activity were determined as described in Example 6. The degree of inhibition due to incorporation of dideoxy- and acyclo-nucleotides is tabulated below.

[7] = test system: ROX-labeled primer annealed to single-stranded M13mp18 DNA; assay: Fluorescent (ROX) primer extension in presence of ddNTPs; type: biochemical
Protocol: In separate reactions, ddGTP, ddATP, ddTTP, and ddCTP were added to the above mix in concentrations of 50, 500 and 5000 μM each. Five units of polymerase 3173 mutant D49A were added and the reactions were incubated for 30 minutes at 70° C. Extension of the primer was detected by the ABI 310 Genetic Analyzer in Gene Scan mode.

B1: T7: T7 DNA polymerase, which incorporates ddNTPs with very low discrimination (protein, UniProt P00581 1-704, looked up)
DNA-directed DNA polymerase: MIVSDIEANALLESVTKFHCGVIYDYSTAEYVSYRPSDFGAYLDALEAEVARGGLIVFHNGHKYDVPALTKLAKLQLNREFHLPRENCIDTLVLSRLIHSNLKDTDMGLLRSGKLPGKRFGSHALEAWGYRLGEMKGEYKDDFKRMLEEQGEEYVDGMEWWNFNEEMMDYNVQDVVVTKALLEKLLSDKHYFPPEIDFTDVGYTTFWSESLEAVDIEHRAAWLLAKQERNGFPFDTKAIEELYVELAARRSELLRKLTETFGSWYQPKGGTEMFCHPRTGKPLPKYPRIKTPKVGGIFKKPKNKAQREGREPCELDTREYVAGAPYTPVEHVVFNPSSRDHIQKKLQEAGWVPTKYTDKGAPVVDDEVLEGVRVDDPEKQAAIDLIKEYLMIQKRIGQSAEGDKAWLRYVAEDGKIHGSVNPNGAVTGRATHAFPNLAQIPGVRSPYGEQCRAAFGAEHHLDGITGKPWVQAGIDASGLELRCLAHFMARFDNGEYAHEILNGDIHTKNQIAAELPTRDNAKTFIYGFLYGAGDEKIGQIVGAGKERGKELKKKFLENTPAIAALRESIQQTLVESSQWVAGEQQVKWKRRWIKGLDGRKVHVRSPHAALNTLLQSAGALICKLWIIKTEEMLVEKGLKHGWDGDFAYMAWVHDEIQVGCRTEEIAQVVIETAQEAMRWVGDHWNFRCLLDTEGKMGPNWAICH
[1]
  Primer extension, dNTPs: 100.0%

B2: polymerase 3173: thermostable viral DNA polymerase with the amino acid sequence of SEQ ID NO:6 (protein)
chain: MGEDGLSLPKMMNTPKPILKPQPKALVEPVLCDSIDEIPAKYNEPVYFDLETDEDRPVLASIYQPHFERKVYCLNLLKEKVARFKDWLLKFSEIRGWGLDFDLRVLGYTYEQLRNKKIVDVQLAIKVQHYERFKQGGTKGEGFRLDDVARDLLGIEYPMNKTKIRETFKNNMFHSFSNEQLLYASLDAYIPHLLYEQLTSSTLNSLVYQLDQQAQKVVIETSQHGMPVKLKALEEEIHRLTQLRSEMQKQIPFNYNSPKQTAKFFGVNSSSKDVLMDLALQGNEMAKKVLEARQIEKSLAFAKDLYDIAKRSGGRIYGNFFTTTAPSGRMSCSDINLQQIPRRLRSFIGFDTEDKKLITADFPQIELRLAGVIWNEPKFIEAFRQGIDLHKLTASILFDKNIEEVSKEERQIGKSANFGLIYGIAPKGFAEYCIANGINMTEEQAYEISQKVEEVLHKDCRQHQVAYERFKYNEYVDNETWLNRTYRAWKPQDLLNYQIQGSGAELFKKAIVLLKETKPDLKIVNLVHDEIVVEADSKEAQDLAKLIKEKMEEAWDWCLEKAEEFGNRVAKIKLEVEEPHVGNTWEKP
modifications: Uncultured newly isolated virus
[2]
  Extension from nicks: strong
[2]; nicking enzyme present, 2 hours at 56° C., 200 units 3173 wt or 400 units D49A
  yields of DNA product: multi-microgram yields
[3]
  Km: 5.3 nM
lacIq gene
  Fidelity: 6.98 × 10^4
lacIq gene; listed as DNA polymerase 3173
  Fidelity: 6.98E+04
Poly rA: Oligo dT
  reverse transcription in presence of manganese versus magnesium: equivalent
Poly rA: Oligo dT; 1 U enzyme, 60° C. 20 minutes (commercial enzymes per manufacturers' conditions)
  Incorporation of dTTP: 1.037 nmol
[4]
  3′-5′ exonuclease activity: strong
[4]; assay detects levels below 0.1% of wild-type
  nuclease activity: potent
[5]; listed as 3173
  Strand displacement: strong
[5]; listed as Polymerase 3173
  Strand displacement: displaced the nascent strand of DNA and continued DNA synthesis
[6]; 5 units, 1 ng template, 16 hours at 55° C.
  estimated overall yield: approximately 50 μg
[6]
  amplification: up to 50,000 fold
other
  Thermostability (T1/2 at 95°): 10 min

B3: polymerase 3173 mutant D49A/F418Y: double mutant of polymerase 3173 with both a D49A and a F418Y mutation, SEQ ID NO:27 (protein)
chain: B2 chain with D49A, F418Y
Activated ct DNA
  Activity, no terminators: 100.0%
[7]; 0.2× ddGTP:dGTP
  primer extension at 0.2× ratio of ddGTP:dGTP: nearly complete inhibition of primer extension
[7]; conclusion drawn from the extension/incorporation data
  discrimination against chain terminating nucleotides: nearly zero
